From patent publication US20160120951A1 (ZEALAND PHARMA A S, published 2016)
Numbered stars: 1 amine (or outer) side, 2 acyl side, 3 side chain; on linkers, the order of the positions; unused ones are H or OH. Bridge positions count the residues as written; N and C are the ends. Square brackets hold non-standard residues; d marks the D form. Side chains are listed from the residue outwards. Ends that are not written are not given here. * marks the point of attachment. isoGlu = used interchangeably with γ-Glu; γGlu = O=C(O)[C@H](CCC(=O)[*:2])N[*:1]; Palmitoyl = CCCCCCCCCCCCCCCC(=O)*; Aib = CC(C)(N)C(=O)O

B1: Compound 5 (peptide)
peptide: H-HSQGTFTSDYSKYLDSKAAHDFVEWLK([γGlu-Palmitoyl])RA-NH2
SMILES: CCCCCCCCCCCCCCCC(=O)N[C@@H](CCC(=O)NCCCC[C@H](NC(=O)[C@H](CC(C)C)NC(=O)[C@H](Cc1c[nH]c2ccccc12)NC(=O)[C@H](CCC(=O)O)NC(=O)[C@@H](NC(=O)[C@H](Cc1ccccc1)NC(=O)[C@H](CC(=O)O)NC(=O)[C@H](Cc1c[nH]cn1)NC(=O)[C@H](C)NC(=O)[C@H](C)NC(=O)[C@H](CCCCN)NC(=O)[C@H](CO)NC(=O)[C@H](CC(=O)O)NC(=O)[C@H](CC(C)C)NC(=O)[C@H](Cc1ccc(O)cc1)NC(=O)[C@H](CCCCN)NC(=O)[C@H](CO)NC(=O)[C@H](Cc1ccc(O)cc1)NC(=O)[C@H](CC(=O)O)NC(=O)[C@H](CO)NC(=O)[C@@H](NC(=O)[C@H](Cc1ccccc1)NC(=O)[C@@H](NC(=O)CNC(=O)[C@H](CCC(N)=O)NC(=O)[C@H](CO)NC(=O)[C@@H](N)Cc1c[nH]cn1)[C@@H](C)O)[C@@H](C)O)C(C)C)C(=O)N[C@@H](CCCNC(=N)N)C(=O)N[C@@H](C)C(N)=O)C(=O)O
B2: Compound 6 (peptide)
peptide: H-HSQGTFTSDYSKYLDSKAAHDFVEWLLK([γGlu-Palmitoyl])A-NH2
SMILES: CCCCCCCCCCCCCCCC(=O)N[C@@H](CCC(=O)NCCCC[C@H](NC(=O)[C@H](CC(C)C)NC(=O)[C@H](CC(C)C)NC(=O)[C@H](Cc1c[nH]c2ccccc12)NC(=O)[C@H](CCC(=O)O)NC(=O)[C@@H](NC(=O)[C@H](Cc1ccccc1)NC(=O)[C@H](CC(=O)O)NC(=O)[C@H](Cc1c[nH]cn1)NC(=O)[C@H](C)NC(=O)[C@H](C)NC(=O)[C@H](CCCCN)NC(=O)[C@H](CO)NC(=O)[C@H](CC(=O)O)NC(=O)[C@H](CC(C)C)NC(=O)[C@H](Cc1ccc(O)cc1)NC(=O)[C@H](CCCCN)NC(=O)[C@H](CO)NC(=O)[C@H](Cc1ccc(O)cc1)NC(=O)[C@H](CC(=O)O)NC(=O)[C@H](CO)NC(=O)[C@@H](NC(=O)[C@H](Cc1ccccc1)NC(=O)[C@@H](NC(=O)CNC(=O)[C@H](CCC(N)=O)NC(=O)[C@H](CO)NC(=O)[C@@H](N)Cc1c[nH]cn1)[C@@H](C)O)[C@@H](C)O)C(C)C)C(=O)N[C@@H](C)C(N)=O)C(=O)O
B3: Compound 7 (peptide)
peptide: HXQGTFTSDYSKYLDSKAAHDFVEWLLSA
modifications: Aib at position 2; K(Hexadecanoyl-γ-Glu) at position 17; C-terminal amide (NH2)
B4: Compound 9 (peptide)
peptide: H-H[Aib]QGTFTSDYSKYLDSK([γGlu-Palmitoyl])AARDFVAWLLRA-NH2
SMILES: CCCCCCCCCCCCCCCC(=O)N[C@@H](CCC(=O)NCCCC[C@H](NC(=O)[C@H](CO)NC(=O)[C@H](CC(=O)O)NC(=O)[C@H](CC(C)C)NC(=O)[C@H](Cc1ccc(O)cc1)NC(=O)[C@H](CCCCN)NC(=O)[C@H](CO)NC(=O)[C@H](Cc1ccc(O)cc1)NC(=O)[C@H](CC(=O)O)NC(=O)[C@H](CO)NC(=O)[C@@H](NC(=O)[C@H](Cc1ccccc1)NC(=O)[C@@H](NC(=O)CNC(=O)[C@H](CCC(N)=O)NC(=O)C(C)(C)NC(=O)[C@@H](N)Cc1c[nH]cn1)[C@@H](C)O)[C@@H](C)O)C(=O)N[C@@H](C)C(=O)N[C@@H](C)C(=O)N[C@@H](CCCNC(=N)N)C(=O)N[C@@H](CC(=O)O)C(=O)N[C@@H](Cc1ccccc1)C(=O)N[C@H](C(=O)N[C@@H](C)C(=O)N[C@@H](Cc1c[nH]c2ccccc12)C(=O)N[C@@H](CC(C)C)C(=O)N[C@@H](CC(C)C)C(=O)N[C@@H](CCCNC(=N)N)C(=O)N[C@@H](C)C(N)=O)C(C)C)C(=O)O
B5: Compound 10 (peptide)
peptide: H-H[Aib]QGTFTSDYSKYLDSKAAK([γGlu-Palmitoyl])DFVAWLLRA-NH2
SMILES: CCCCCCCCCCCCCCCC(=O)N[C@@H](CCC(=O)NCCCC[C@H](NC(=O)[C@H](C)NC(=O)[C@H](C)NC(=O)[C@H](CCCCN)NC(=O)[C@H](CO)NC(=O)[C@H](CC(=O)O)NC(=O)[C@H](CC(C)C)NC(=O)[C@H](Cc1ccc(O)cc1)NC(=O)[C@H](CCCCN)NC(=O)[C@H](CO)NC(=O)[C@H](Cc1ccc(O)cc1)NC(=O)[C@H](CC(=O)O)NC(=O)[C@H](CO)NC(=O)[C@@H](NC(=O)[C@H](Cc1ccccc1)NC(=O)[C@@H](NC(=O)CNC(=O)[C@H](CCC(N)=O)NC(=O)C(C)(C)NC(=O)[C@@H](N)Cc1c[nH]cn1)[C@@H](C)O)[C@@H](C)O)C(=O)N[C@@H](CC(=O)O)C(=O)N[C@@H](Cc1ccccc1)C(=O)N[C@H](C(=O)N[C@@H](C)C(=O)N[C@@H](Cc1c[nH]c2ccccc12)C(=O)N[C@@H](CC(C)C)C(=O)N[C@@H](CC(C)C)C(=O)N[C@@H](CCCNC(=N)N)C(=O)N[C@@H](C)C(N)=O)C(C)C)C(=O)O
B6: Compound 12 (peptide)
peptide: H-H[Aib]QGTFTSDYSKYLDSKAAHDFVEWLLK([γGlu-Palmitoyl])A-NH2
SMILES: CCCCCCCCCCCCCCCC(=O)N[C@@H](CCC(=O)NCCCC[C@H](NC(=O)[C@H](CC(C)C)NC(=O)[C@H](CC(C)C)NC(=O)[C@H](Cc1c[nH]c2ccccc12)NC(=O)[C@H](CCC(=O)O)NC(=O)[C@@H](NC(=O)[C@H](Cc1ccccc1)NC(=O)[C@H](CC(=O)O)NC(=O)[C@H](Cc1c[nH]cn1)NC(=O)[C@H](C)NC(=O)[C@H](C)NC(=O)[C@H](CCCCN)NC(=O)[C@H](CO)NC(=O)[C@H](CC(=O)O)NC(=O)[C@H](CC(C)C)NC(=O)[C@H](Cc1ccc(O)cc1)NC(=O)[C@H](CCCCN)NC(=O)[C@H](CO)NC(=O)[C@H](Cc1ccc(O)cc1)NC(=O)[C@H](CC(=O)O)NC(=O)[C@H](CO)NC(=O)[C@@H](NC(=O)[C@H](Cc1ccccc1)NC(=O)[C@@H](NC(=O)CNC(=O)[C@H](CCC(N)=O)NC(=O)C(C)(C)NC(=O)[C@@H](N)Cc1c[nH]cn1)[C@@H](C)O)[C@@H](C)O)C(C)C)C(=O)N[C@@H](C)C(N)=O)C(=O)O
B7: Compound 13 (peptide)
peptide: H[Aib]QGTFTSDYSKYLDSK([γGlu-Palmitoyl])AAHDFVEWLLKA-NH2
modifications: lactam 24-28; N-terminus assumed
SMILES: CCCCCCCCCCCCCCCC(=O)N[C@@H](CCC(=O)NCCCC[C@H](NC(=O)[C@H](CO)NC(=O)[C@H](CC(=O)O)NC(=O)[C@H](CC(C)C)NC(=O)[C@H](Cc1ccc(O)cc1)NC(=O)[C@H](CCCCN)NC(=O)[C@H](CO)NC(=O)[C@H](Cc1ccc(O)cc1)NC(=O)[C@H](CC(=O)O)NC(=O)[C@H](CO)NC(=O)[C@@H](NC(=O)[C@H](Cc1ccccc1)NC(=O)[C@@H](NC(=O)CNC(=O)[C@H](CCC(N)=O)NC(=O)C(C)(C)NC(=O)[C@@H](N)Cc1c[nH]cn1)[C@@H](C)O)[C@@H](C)O)C(=O)N[C@@H](C)C(=O)N[C@@H](C)C(=O)N[C@@H](Cc1c[nH]cn1)C(=O)N[C@@H](CC(=O)O)C(=O)N[C@@H](Cc1ccccc1)C(=O)N[C@H](C(=O)N[C@H]1CCC(=O)NCCCC[C@@H](C(=O)N[C@@H](C)C(N)=O)NC(=O)[C@H](CC(C)C)NC(=O)[C@H](CC(C)C)NC(=O)[C@H](Cc2c[nH]c3ccccc23)NC1=O)C(C)C)C(=O)O
B8: Compound 14 (peptide)
peptide: HXQGTFTSDYSKYLDSKAAHDFVEWLLSA
modifications: Aib at position 2; K(Dodecanoyl-γ-Glu) at position 17; C-terminal amide (NH2)
B9: Compound 15 (peptide)
peptide: HXQGTFTSDYSKYLDSKAAHDFVEWLLSA
modifications: Aib at position 2; K(Hexadecanoyl-[3-Aminopropanoyl]) at position 17; C-terminal amide (NH2)
B10: Compound 16 (peptide)
peptide: HXQGTFTSDYSKYLDSKAAHDFVEWLLSA
modifications: Aib at position 2; K(Hexadecanoyl-[8-Aminooctanoyl]) at position 17; C-terminal amide (NH2)
B11: Compound 40 (peptide)
peptide: H-H[Aib]QGTFTSDYSKYLDEK([isoGlu-Palmitoyl])AAHDFVEWLLSA-NH2
B12: Compound 41 (peptide)
peptide: H[Aib]QGTFTSDYSKYLDSK([isoGlu-Palmitoyl])AAHEFVEWLLSA-NH2
B13: Compound 42 (peptide)
peptide: H-H[Aib]QGTFTSDYSKYLDSK([isoGlu-Palmitoyl])AAEDFVEWLLSA-NH2
B14: Compound 43 (peptide)
peptide: H-H[Aib]QGTFTSDYSKYLDSK([isoGlu-Palmitoyl])AAHDFVEWLLEA-NH2

target: T1, human glucagon-like peptide 1 receptor (GLP-1R) (human, UniProt P43220 24-463); experiment: cell-based or functional assay
T1 sequence (P43220 24-463): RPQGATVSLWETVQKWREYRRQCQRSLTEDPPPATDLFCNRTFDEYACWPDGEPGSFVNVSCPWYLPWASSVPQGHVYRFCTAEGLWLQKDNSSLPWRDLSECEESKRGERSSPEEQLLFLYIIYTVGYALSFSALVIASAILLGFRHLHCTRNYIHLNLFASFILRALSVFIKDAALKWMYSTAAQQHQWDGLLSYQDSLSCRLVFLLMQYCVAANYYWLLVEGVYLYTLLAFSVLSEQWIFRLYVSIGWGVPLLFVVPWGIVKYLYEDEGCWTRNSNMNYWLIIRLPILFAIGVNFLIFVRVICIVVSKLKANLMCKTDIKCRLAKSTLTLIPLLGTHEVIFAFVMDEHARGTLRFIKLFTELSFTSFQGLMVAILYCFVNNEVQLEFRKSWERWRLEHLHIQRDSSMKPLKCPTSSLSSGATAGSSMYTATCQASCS

Row | Binder | EC50 (nM) GLP-1R, cAMP formation
1 | B1 | 0.57 nM
2 | B2 | 0.09 nM
3 | B3 | 0.11 nM
4 | B4 | 0.12 nM
5 | B5 | 0.15 nM
6 | B6 | 0.27 nM
7 | B7 | 0.08 nM
8 | B8 | 0.14 nM
9 | B9 | 0.23 nM
10 | B10 | 0.24 nM

target: T2, human glucagon receptor (Glucagon-R) (human, UniProt P47871 26-477); experiment: cell-based or functional assay

Row | Binder | EC50 (nM) GluR, cAMP formation
11 | B1 | 0.22 nM
12 | B2 | 0.1 nM
13 | B3 | 0.16 nM
14 | B4 | 0.17 nM
15 | B5 | 0.63 nM
16 | B6 | 0.27 nM
17 | B7 | 0.26 nM
18 | B8 | 0.78 nM
19 | B9 | 1.87 nM
20 | B10 | 0.46 nM

target: T1, human glucagon-like peptide 1 receptor …; experiment: cell-based or functional assay; remark: another data set of the same source

Row | Binder | EC50 (nM) GLP-1R, cAMP formation
21 | B11 | 0.2 nM
22 | B12 | 0.13 nM
23 | B13 | 0.03 nM
24 | B14 | 0.082 nM

target: T2, human glucagon receptor (Glucagon-R); experiment: cell-based or functional assay; remark: another data set of the same source

Row | Binder | EC50 (nM) GluR, cAMP formation
25 | B11 | 0.18 nM
26 | B12 | 0.08 nM
27 | B13 | 0.27 nM
28 | B14 | 0.12 nM
